Entries after “also recorded” stand apart in the source; their conditions may differ.
Experiments:
[1] = system: Human coronary artery endothelial cells (HCAEC); test: Hypoxia-induced endothelial cell apoptosis assay (caspase 3); format: cell-based; settings: SFRP2 70 pM and 700 pM, 36 h hypoxia
Description: Human coronary artery endothelial cells (HCAEC) were used for apoptosis assays because apoptosis could not be induced in the MEC cells. HCAECs were grown in 10-cm dishes (Becton Dickinson, Franklin Lakes, N.J.) with endothelial cell basal medium-2 (EGM-2) BulletKit media (Clonetics, San Diego, Calif.) until 80% confluent. Medium was then replaced with optimal medium according to different assays. The hypoxic condition was created by incubating HCAECs in EGM-2 media without BulletKit growth factors at 37° C. in a hypoxia chamber with an atmosphere of 5% CO2/95% N2. The oxygen level in the chamber was controlled to 1.0%. Apoptosis was determined by measuring the activity of cleaved caspase 3 by using a caspase-specific fluorogenic substrate according to the protocol for the Caspase 3 Assay Kit (Sigma). HCAECs were lysed after treatment with concentrations of SFRP2 (70 pM and 700 pM) for 36 h under hypoxia. […] The enzyme-catalyzed release of 7-amino-4-methyl coumarin (AMC) was measured by a fluorescence microplate reader.
HCAEC were seeded onto a 96 well plate at 2,000 cells/well in EGM-2 with BulletKit growth supplements. […] Apoptosis was determined by measuring the activity of cleaved caspase 3 by using a caspase-specific fluorogenic substrate according to the protocol for the Apo-ONE® Homogeneous Caspase-3/7 Assay (Promega, Madison, Wis.). […]

β-catenin = test: Western blot for nuclear and cytoplasmic β-catenin in endothelial cells; format: cell-based, mouse; settings: SFRP2 700 pM
Description: SFRP2 has been described as both a Wnt antagonist and agonist, but its effects on Wnt signaling in endothelial cells have not been elucidated. To determine if SFRP2 mediates canonical Wnt signaling in endothelial cells, cytoplasmic and nuclear β-catenin levels were measured in SFRP2-treated endothelial cells. Mouse endothelial cells were plated in 12-well plates and allowed to attach overnight. The next day, the media was changed and added to the wells with and without SFRP2 (700 pM). Cells were incubated for 16 hours, and the nuclear and cytoplasmic proteins were extracted by using NE-PER™ nuclear and cytoplasmic extraction reagent from PIERCE (Pierce Biotechnology) as described in the manufacturer's manual. Western blot analysis was performed using standard methods, with primary antibody to the dephosphorylated (active) β-catenin antibody (Santa Cruz, Clone BDI480, catalog # sc-59893).
To evaluate the role of the non-canonical Wnt/Ca^++ pathway in SFRP2 induced angiogenesis, nuclear dephosphorylated NFATc3 protein levels were compared in control and SFRP2-treated endothelial cells. MEC cells were plated in 12-well plates and allowed to attach overnight. The next day, the media was changed and added to the wells with and without SFRP2 (700 pM). […]

B1: SFRP2: mouse recombinant SFRP2 (US Biologicals), secreted frizzled-related protein 2 (protein)
chain: LFLFGQPDFSYKRSNCKPIPANLQLCHGIEYQNMRLPNLLGHETMKEVLEQAGAWIPLVMKQCHPDTKKFLCSLFAPVCLDDLDETIQPCHSLCVQVKDRCAPVMSAFGFPWPDMLECDRFPQDNDLCIPLASSDHLLPATEEAPKVCEACKTKNEDDNDIMETLCKNDFALKIKVKEITYINRDTKIILETKSKTIYKLNGVSERDLKKSVLWLKDSLQCTCEEMNDINAPYLVMGQKQGGELVITSVKRWQKGQREFKRISRSIRKLQC
[1]
  hypoxia induced endothelial cell apoptosis (cleaved caspase 3 activity): protected against hypoxia induced endothelial cell apoptosis; also recorded: inhibits hypoxia-induced apoptosis
β-catenin
  nuclear (and cytoplasmic) β-catenin level: no change in nuclear β-catenin; also recorded: no change in cytoplasmic or nuclear β-catenin levels
